Consider one substance from article PMC9712074.

In this assay the target is SA58 (BD55-5840), human IgG1 (human). The experiment in a line: SPR. Background: In SPR one partner is held on a chip, and binding of the other changes the refractive index at the surface.

For the substance “SARS-CoV-2 (BA.4/BA.5) Spike RBD Protein (His Tag) (from UniProt P0DTC2) (domain or fragment)”, the dissociation constant (Kd) was 0.96 nM.

A word on the Kd: it is the free concentration of one partner at which half of the binding sites on the other are occupied at equilibrium, for simple one-to-one binding. High values mean a looser complex, low ones a tighter complex.
